Laboratory results: US20110091971A1, “Differentiation of Pluripotent Stem Cells” (priority 2008, published 2011)
Where “and” joins values, the source holds several entries; their conditions need not be identical. Identical values can stand only once. Entries after “also recorded” stand apart in the source; their conditions may differ.

Tested on: H1 or H9 human embryonic stem cells
Experiment: Activin A bioassay: differentiation of human embryonic stem cells to definitive endoderm, cell number and SOX17 intensity by high content analysis (96-well, four days);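 on Cell Number average: Raw total cell count per well from high content imaging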;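 on Sox 17 Intensity average: total fluorescence of the cell multiplied by cell area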
Format: cell-based
Text: Activin A is an important mediator of differentiation in a broad range of cell types. […] A bioassay that measures this differentiation in human embryonic stem cells was adapted in miniaturized format to 96-well plates for screening purposes. Validation was completed using treatment with commercial sources of activin A and Wnt3a recombinant proteins and measuring protein expression of the transcription factor SOX17, which is considered a representative marker of definitive endoderm.
Live Cell Assay: Briefly, clusters of H1 or H9 human embryonic stem cells were grown on growth factor-reduced MATRIGEL™ (Invitrogen; Cat #356231)-coated tissue culture plastic. Cells were passaged using collagenase (Invitrogen; Cat # Cat #17104-019) treatment and gentle scraping, washed to remove residual enzyme, and plated in a ratio of 1:1 (surface area) on growth factor-reduced MATRIGEL™-coated 96-well plates (black, 96-well; Packard ViewPlates; Cat #6005182). Cells were allowed to attach as clusters and then recover log phase growth over a 1 to 3 day period, feeding daily with MEF conditioned medium supplemented with 8 ng/ml bFGF (R&D Systems; Cat #233-FB).
The assay was initiated by washing the wells of each plate twice in PBS and followed by adding an aliquot (100 μl) of test sample in DMEM:F12 basal medium (Invitrogen; Cat #11330-032) to each well. Test conditions were performed in triplicate, feeding […] by aspirating and replacing the medium from each well with test samples over a total four day assay period. On the first and second day of assay, test samples added to the assay wells were diluted in DMEM:F12 with 0.5% FCS (HyClone; Cat #SH30070.03) and 20 ng/ml Wnt3a (R&D Systems; Cat #1324-WN). On the third and fourth day of assay, test samples added to the assay wells were diluted in DMEM:F12 with 2% FCS, without any Wnt3a. Positive control samples consisted of recombinant human activin A (Peprotech; Cat #120-14) added at a concentration of 100 ng/ml throughout assay plus Wnt3a (20 ng/ml) on days 1 and 2. Negative control samples omitted treatment with both activin A and Wnt3a.
High Content Analysis: At the conclusion of four days of culture, assay plates were washed twice with PBS, fixed with 4% paraformaldehyde at room temperature for 20 minutes, then washed three times with PBS and permeabilized with 0.5% Triton X-100 for 20 minutes at room temperature. Cells were washed again three times with PBS and blocked with 4% chicken serum (Invitrogen; Cat #16110082) in PBS for 30 minutes at room temperature. Primary antibody (goat anti-human SOX17; R&D Systems; cat #AF1924) was diluted 1:100 in 4% chicken serum and added to each well for one hour at room temperature. Alexa Fluor 488 conjugated secondary antibody (chicken anti-goat IgG; Molecular Probes; Cat #) was diluted 1:200 in PBS and added to each sample well after washing three times with PBS. To counterstain nuclei, 4 μg/ml Hoechst 33342 (Invitrogen; Cat #H3570) was added for ten minutes at room temperature. Plates were washed once with PBS and left in 100 μl/well PBS for imaging.
Imaging was performed using an IN Cell Analyzer 1000 (GE Healthcare) utilizing the 51008bs dichroic for cells stained with Hoechst 33342 and Alexa Fluor 488. Exposure times were optimized from positive control wells and from untreated negative control wells stained with secondary antibody alone. Images from 15 fields per well were acquired to compensate for any cell loss during the bioassay and subsequent staining procedures. Measurements for total cell number and total SOX17 intensity were obtained from each well using IN Cell Developer Toolbox 1.7 (GE Healthcare) software. Segmentation for the nuclei was determined based on grayscale levels (baseline range 100-300) and nuclear size. Averages and standard deviations were calculated for each replicate data set. […]

[1] = supernatant concentration 1x, assay dilution 1:20
[2] = supernatant concentration 1x, assay dilution 1:20, control = R&D Sys Activin A 100 ng/ml on same plate
[3] = supernatant concentration 10x, assay dilution 1:20
[4] = concentrated supernatant (10x; ACTD3 4x), assay dilution 1:20
[5] = supernatant concentration 10x, assay dilution 1:20, control = R&D Sys Activin A 100 ng/ml on same plate
[6] = supernatant concentration 10x, assay dilution 1:40
[7] = supernatant concentration 10x, assay dilution 1:40, control = R&D Sys Activin A 100 ng/ml on same plate

R&D Sys Activin A
Cell Number average (assay concentration 6.25 ng/ml): 5540
Sox 17 Intensity % of control (assay concentration 6.25 ng/ml): 13%
Sox 17 Intensity average (assay concentration 6.25 ng/ml): 5.49E+06
Cell Number average (assay concentration 12.5 ng/ml): 5784
Sox 17 Intensity % of control (assay concentration 12.5 ng/ml): 19%
Sox 17 Intensity average (assay concentration 12.5 ng/ml): 8.10E+06
Cell Number average (assay concentration 25 ng/ml): 6212
Sox 17 Intensity % of control (assay concentration 25 ng/ml): 39%
Sox 17 Intensity average (assay concentration 25 ng/ml): 1.69E+07
Cell Number average (assay concentration 50 ng/ml): 6218
Sox 17 Intensity % of control (assay concentration 50 ng/ml): 33%
Sox 17 Intensity average (assay concentration 50 ng/ml): 1.45E+07
Cell Number average (assay concentration 100 ng/ml): 8680
Sox 17 Intensity % of control (assay concentration 100 ng/ml): 100%
Sox 17 Intensity average (assay concentration 100 ng/ml): 4.37E+07
Cell Number average (assay concentration 200 ng/ml): 12032
Sox 17 Intensity % of control (assay concentration 200 ng/ml): 285%
Sox 17 Intensity average (assay concentration 200 ng/ml): 1.25E+08
Cell Number average (assay concentration 400 ng/ml): 13961
Sox 17 Intensity % of control (assay concentration 400 ng/ml): 396%
Sox 17 Intensity average (assay concentration 400 ng/ml): 1.73E+08

B1: OriGene wildtype: wildtype human activin A expressed from commercial OriGene construct (Cat. No. TC118774, pCMV6-XL4); supernatant used as positive control (protein, UniProt P08476 311-426, looked up)
Inhibin beta A chain: GLECDGKVNICCKKQFFVSFKDIGWNDWIIAPSGYHANYCEGECPSHIAGTSGSSLSFHSTVINHYRMRGHSPFANLKSCCVPTKLRPMSMLYYDDGQNIIKKDIQNMIVEECGCS
modifications: Inhibin beta A chain activin A homodimer
improvement of functional activity on concentrating the supernatant (HEK293-E supernatant, 4× concentrated versus 1× (neat)): approximately 1.5 fold
activity (SOX17 intensity) of supernatants (HEK293-E supernatants, OriGene in pCMV6-XL4 compared with ACTN 1 in pcDNA3.1(−)): much greater activity; also recorded: superior
Cell Number average [1]: 979
Sox 17 Intensity average [1]: 1.819E+07
Sox 17 Intensity % of control [2]: 9.9%
Cell Number average [3]: 5548
Sox 17 Intensity average [3]: 2.035E+08
Cell Number average (supernatant concentration 10x, assay dilution 1:20, assay plates #007, #009, #010, listed as OriGENE WT): 12727 and 7061 and 11356
Cell Number average (supernatant concentration 50x, assay dilution 1:20, assay plates #008, #009, listed as OriGENE WT): 12200 and 9025
Sox 17 Intensity % of control (supernatant concentration 50x, assay dilution 1:20, control = R&D Sys Activin A 100 ng/ml on same plate, listed as OriGENE WT): 409.0% and 285.3%

B2: ACTN16: activin A variant peptide, SEQ ID 17 (protein)
chain: GLECDGKVNLCCKKQLFVSFKDIGWNDWIIAPSGYHANHCSGLCPSHIAGTSGSSLSFHSTVINHYRMRGHSPFSQMGACCVPTKLRPMSMLYYDDGQNIIKKDIQNMIVEECGCS
Cell Number average [4]: 8775
Sox 17 Intensity average [4]: 3.89E+07
Sox 17 Intensity % of control (concentrated supernatant (10x; ACTD3 4x), assay dilution 1:20, control = R&D Sys Activin A 100 ng/ml): 89%
higher potency of supernatant concentrated 10× relative to corresponding unconcentrated supernatant (primary screening, SOX17 expression, H1 cells): 4 fold
Cell Number average [1]: 7068
Sox 17 Intensity average [1]: 1.36E+07
Sox 17 Intensity % of control [2]: 52.7%
Cell Number average [3]: 11118
Sox 17 Intensity average [3]: 5.55E+07
Sox 17 Intensity % of control [5]: 214.4%
Cell Number average [6]: 11064
Sox 17 Intensity average [6]: 6.46E+07
Sox 17 Intensity % of control [7]: 249.3%

B3: ACTN38: activin A variant peptide, SEQ ID 39 (protein)
chain: GLECDGKVNLCCKKQDFVSFKDIGWNDWIIAPSGYHANKCGGKCPSHIAGTSGSSLSFHSTVINHYRMRGHSPFSQLGACCVPTKLRPMSMLYYDDGQNIIKKDIQNMIVEECGCS
Cell Number average [1]: 2023
Sox 17 Intensity average [1]: 9.26E+04
Sox 17 Intensity % of control [2]: 1.0%
Cell Number average [3]: 3019
Sox 17 Intensity average [3]: 3.89E+05
Sox 17 Intensity % of control [5]: 4.2%
Cell Number average [6]: 2520
Sox 17 Intensity average [6]: 3.56E+04
Sox 17 Intensity % of control [7]: 0.4%

B4: ACTN39: activin A variant peptide, SEQ ID 40 (protein)
chain: GLECDGKVNLCCKKQNFVSFKDIGWNDWIIAPSGYHANECSGLCPSHIAGTSGSSLSFHSTVINHYRMRGHSPFSDMGSCCVPTKLRPMSMLYYDDGQNIIKKDIQNMIVEECGCS
Cell Number average [1]: 1596
Sox 17 Intensity average [1]: 5.13E+04
Sox 17 Intensity % of control [2]: 0.5%
Cell Number average [3]: 3362
Sox 17 Intensity average [3]: 1.31E+06
Sox 17 Intensity % of control [5]: 14.0%
Cell Number average [6]: 1331
Sox 17 Intensity average [6]: 4.81E+05
Sox 17 Intensity % of control [7]: 5.1%

B5: R&D Sys Activin A (protein, UniProt P08476 311-426, looked up)
Inhibin beta A chain: GLECDGKVNICCKKQFFVSFKDIGWNDWIIAPSGYHANYCEGECPSHIAGTSGSSLSFHSTVINHYRMRGHSPFANLKSCCVPTKLRPMSMLYYDDGQNIIKKDIQNMIVEECGCS
modifications: Inhibin beta A chain activin A homodimer
Sox 17 Intensity % of control (100 ng/ml (the control itself)): 100%
Sox 17 Intensity % of control (100 ng/ml (the plate's control itself)): 100%

B6: ACTN35: activin A variant peptide, SEQ ID 36 (protein)
chain: GLECDGKVNLCCKKQDFVSFKDIGWNDWIIAPSGYHANRCSGKCPSHIAGTSGSSLSFHSTVINHYRMRGHSPFSDMGSCCVPTKLRPMSMLYYDDGQNIIKKDIQNMIVEECGCS
Cell Number average [1]: 8553
Sox 17 Intensity average [1]: 7.94E+04
Sox 17 Intensity % of control [2]: 0.3%
Cell Number average [3]: 6805
Sox 17 Intensity average [3]: 1.26E+06
Sox 17 Intensity % of control [5]: 4.3%
Cell Number average [6]: 7926
Sox 17 Intensity average [6]: 6.76E+05
Sox 17 Intensity % of control [7]: 2.3%
